For this series, the target named is pooled human IgG.

The source of these data is patent publication US20250027068.

B1: PRT-77 (protein)
chain: MANQEIRYSEVTPYHVTSVWTKGVTPPTNFTQGEDVFHAPYVANQGWYDITKTFNGKDNLLCGAATAGNMLHWWFDQNKEEIERYLKKHPEKQKIMFGDQELLDVRKVINTKDDQKNSELFNYFRDKAFPGLSARRLGVMPDLVLDMFINGYYLNVGKTQTTDVNRTYQEKDKRGGIFDAVFTRGDQSKLLTSRHDFKEKNLKEISDLIKQELTEGKALGLSHTYANVRINHVINLWGADFDSNGNLEAIYVTDSDSNASIGMKKYFVGVNSAGKVAISAKEIEEDNIGAQVLGLFTLSTGQDIWNQTN
Protein B1 gave an Enzyme Activity Endpoint Assay (purified): Fab′2 of 33 ng/µL, an Enzyme Activity Endpoint Assay (purified): Fc of 104 ng/µL, an Enzyme Activity Endpoint Assay (purified): IgG of 14 ng/µL and an Enzyme Activity Endpoint Assay (purified): scIgG of 17 ng/µL.

B2: PRT-6 (protein)
chain: MANQEIRYSEVTPYHVTSVWTKGVTPPANFTQGEDVFHAPYVANQGWYDITKTFNGKDDLLCGAATAGNMLHWWFDQNKEQIERYLKEHPEKQKINFNGEQMFDVKEAIDTKNSQLDSKLFEYFKEKAFPYLSTKHLGVFPDHVIDMFINGYRLSLTNHGPTPVKEGSKDPRGGIFDAVFTRGDQSKLLTSRHDFKEKNLKEISDLIKKELTEGKALGLSHTYANVRINHVINLWGADFDSNGNLKAIYVTDSDSNASIGMKKYFVGVNSAGKVAISAKEIEGDNIGAQVLGLFTLSTGQDIWNQTN
In the case of B2, the Enzyme Activity Endpoint Assay: Fab′2 came to 49 ng/µL, the Enzyme Activity Endpoint Assay: Fc was 129 ng/µL, the Enzyme Activity Endpoint Assay: IgG turned out to be 16 ng/µL and the Enzyme Activity Endpoint Assay: scIgG amounted to 15 ng/µL.

B3: PRT-78 (protein)
chain: MANQEIRYSEETPYHVTSVWTKGVTPPADFTQGEDVFHAPYVANQGWYDITKTFNGKDDLLCGAATAGNMLHWWFDQNKEYIEAYLKKHPEKQKIMFGDQELLDVRKAINTKGSQKNSELFNYFRDKAFPNLSARRLGVMPDLVLDMFINGYYLNVTKTQTTDVNRTYQEKDKRGGIFDAVFTRGDQSKLLTSRHDFKEKGLKEISDLIKQELTEGKALGLSHTYANVRINHVINLWGADFDSDGNLKAIYVTDSDSNASIGMKKYFVGVNSAGKVAISAKEIKEDNIGAQVLGLFTLSTGQDIWNQTN
Protein B3 registered an Enzyme Activity Endpoint Assay (purified): Fab′2 of 34 ng/µL, an Enzyme Activity Endpoint Assay (purified): Fc of 94 ng/µL, an Enzyme Activity Endpoint Assay (purified): IgG of 21 ng/µL and an Enzyme Activity Endpoint Assay (purified): scIgG of 11 ng/µL.

B4: PRT-79 (protein)
chain: MANQEIRYSEVTPKTITSVWTKGVTPPAKFTQNEDVFHAPYVANQGWYDITKTFNGKDDLLCGAATAGNMLHWWFDQNKEQIEAYLKKHPEKQKIMFGDQELLDVRKVINTKDDQTNSELFNYFKDKAFPNLSARRLGVMPDLVLDMFINGYRLNVGKTQTTDVNRTYQDKDPRGGIFDAVFTRGDQSKLLTSRHDFKEKNLKEISDLIKQELTEGKALGLSHTYANVRINHVINLWGADFDSEGNLEAIYVTDSDSNASIGMKKYFVGVNSAGKVAISAKEIEEDNIGAQVLGLFTLSTGQDIWEQTN
B4 registered an Enzyme Activity Endpoint Assay (purified): Fab′2 of 0 ng/µL, an Enzyme Activity Endpoint Assay (purified): Fc of 44 ng/µL, an Enzyme Activity Endpoint Assay (purified): IgG of 72 ng/µL and an Enzyme Activity Endpoint Assay (purified): scIgG of 38 ng/µL.

B5: PRT-80 (protein)
chain: MANQEIRYSEVTPKHITSVWTKGVTPPTQFIQGEDVFHAPYKANQGWYDITKTFNGKDDLLCGAATAGNMLHWWFDQNKEEIEAYLKKHPEKQKIMFGDQELLDVRKAINTKDDQTNSELFNYFRDKAFPNLSARRLGVMPDHVLDMFINGYYLNVNKTQTTDVNRTYQEKDPRGGIFDAVFTRGDQSKLLTSRHDFKEKTLKEISDLIKQELTEGKALGLSHTYANVRINHVINLWGADFDSNGNLKAIYVTDSDSDASIGMKKYFVGVNSAGKVAISAKEIKGDNIGAQVLGLFTLSTGQDIWNQTN
The protein B5 showed an Enzyme Activity Endpoint Assay (purified): Fab′2 of 15 ng/µL, an Enzyme Activity Endpoint Assay (purified): Fc of 70 ng/µL, an Enzyme Activity Endpoint Assay (purified): IgG of 29 ng/µL and an Enzyme Activity Endpoint Assay (purified): scIgG of 34 ng/µL.
